In experiment [1] the target is human recombinant HMGB1 protein (high-mobility group box-1) (human) (UniProt P09429). Description: SPR; human recombinant HMGB1 immobilised on a CMDH chip (immobilisation buffer 10 mM S.A., pH 4.5); analytes flowed at 30 uL/min; running buffer PBS pH 7.4; association and dissociation 3 min each; room temperature; Reichert SR7500DC, Scrubber2.
The target is the same in experiment [2].

Drawing on PMC10200060, “Inhibition of DAMP actions in the tumoral microenvironment using lactoferrin-glycyrrhizin conjugate for glioblastoma therapy” (Biomaterials Research, 2023), this text covers Kd and reduction of HUVEC proliferation in Transwell co-culture with U87MG (CCK-8, 24 h, 100 uM GL equivalent) for 4 substances.

Sequence of human recombinant HMGB1 protein (high-mobility group box-1) (human) (P09429 whole entry): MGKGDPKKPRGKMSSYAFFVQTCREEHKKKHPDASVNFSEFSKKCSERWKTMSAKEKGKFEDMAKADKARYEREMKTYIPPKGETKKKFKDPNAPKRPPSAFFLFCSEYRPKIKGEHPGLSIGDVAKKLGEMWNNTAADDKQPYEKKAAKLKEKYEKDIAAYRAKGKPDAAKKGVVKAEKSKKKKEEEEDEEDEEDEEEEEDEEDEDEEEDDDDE

With “lactoferrin-glycyrrhizin conjugate Lf-GL (1:4)”, the Kd in experiment [1] turned out to be 595 nM.

Consider “lactoferrin-glycyrrhizin conjugate Lf-GL (1:15)”, for which the Kd in experiment [1] turned out to be 32.3 nM.

Regarding “lactoferrin-glycyrrhizin conjugate Lf-GL (1:10)”, the reduction of HUVEC proliferation in Transwell co-culture with U87MG (CCK-8, 24 h, 100 uM GL equivalent) in experiment [2] came out at 13%. Also, the Kd in experiment [1] turned out to be 23.1 nM.

Consider “lactoferrin human (Lf) (natural protein)”, for which the reduction of HUVEC proliferation in Transwell co-culture with U87MG (CCK-8, 24 h, 100 uM GL equivalent) in experiment [2] was 8.2%. Moreover, in experiment [1], the Kd was determined as 165 nM.
